We go through eight molecules from article doi:10.1101/2023.02.27.530350 (bioRxiv, 2023).

Like-named read-outs stand apart in the source and are kept apart here.

Data set [1] has as its target T1, WalR (Staphylococcus aureus, UniProt Q2FKN8 1-233). Put plainly: EMSA.
The target in data set [2] is T2, VraR (Staphylococcus aureus, UniProt Q2FX09 1-209).
T2 sequence: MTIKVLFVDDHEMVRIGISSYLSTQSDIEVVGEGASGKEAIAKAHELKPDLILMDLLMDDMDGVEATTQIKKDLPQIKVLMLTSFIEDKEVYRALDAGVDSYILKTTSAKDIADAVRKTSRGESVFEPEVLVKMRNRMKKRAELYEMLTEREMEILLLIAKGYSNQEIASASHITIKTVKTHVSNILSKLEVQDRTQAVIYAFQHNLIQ
Put plainly: EMSA.

The target in data set [3] is T1, WalR. Put plainly: EMSA. The source holds these as a separate data set.
In data set [4] the target is T1, WalR. Put plainly: EMSA. This is another data set of the same source.
The target of data set [5] is T3, WalK-LgBIT (native WalK, sensor histidine kinase) (Staphylococcus aureus, UniProt Q2FKN7 1-608).
T3 sequence (looked up): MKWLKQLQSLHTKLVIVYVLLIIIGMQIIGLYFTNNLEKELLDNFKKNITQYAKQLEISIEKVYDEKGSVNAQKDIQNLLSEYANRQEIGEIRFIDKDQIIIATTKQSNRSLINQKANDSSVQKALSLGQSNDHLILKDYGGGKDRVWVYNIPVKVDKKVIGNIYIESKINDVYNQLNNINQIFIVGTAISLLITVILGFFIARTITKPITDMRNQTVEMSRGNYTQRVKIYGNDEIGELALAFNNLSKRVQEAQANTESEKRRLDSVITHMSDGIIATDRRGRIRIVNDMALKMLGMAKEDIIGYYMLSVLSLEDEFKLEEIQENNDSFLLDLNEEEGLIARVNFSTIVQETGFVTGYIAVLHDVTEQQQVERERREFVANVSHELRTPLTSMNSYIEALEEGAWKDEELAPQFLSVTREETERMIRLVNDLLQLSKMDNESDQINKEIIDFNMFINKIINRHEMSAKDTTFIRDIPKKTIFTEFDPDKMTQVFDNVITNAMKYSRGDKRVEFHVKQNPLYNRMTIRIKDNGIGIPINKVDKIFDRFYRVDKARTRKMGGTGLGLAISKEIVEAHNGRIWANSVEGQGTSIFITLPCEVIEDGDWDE
Briefly: split reporter.

Data set [6] concerns the target T2, VraR. Put plainly: EMSA. This is another data set of the same source.

T1 sequence (Q2FKN8 whole entry): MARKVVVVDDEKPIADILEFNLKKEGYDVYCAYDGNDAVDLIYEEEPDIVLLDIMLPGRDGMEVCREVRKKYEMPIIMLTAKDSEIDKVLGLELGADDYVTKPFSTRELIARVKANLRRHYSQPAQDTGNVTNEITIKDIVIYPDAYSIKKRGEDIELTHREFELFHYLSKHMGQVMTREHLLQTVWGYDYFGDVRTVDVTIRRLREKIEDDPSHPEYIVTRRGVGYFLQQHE

B1: ltaS promoter EMSA probe (VraR site) (dsDNA)
DNA 1: CATTAGGAGGAAATTATTTGCATCGGACTCGAGTATGAGCTACGTACCAAATATTATTTCATCATTTCTA
DNA 2: TAGAAATGATGAAATAATATTTGGTACGTAGCTCATACTCGAGTCCGATGCAAATAATTTCCTCCTAATG
As for B1, the binding result with WalR [1] is listed as “no binding”; with VraR [2] it was “binds”.

B2: ssaA promoter EMSA probe (dsDNA)
DNA 1: AAAACTGAATGTTTCGAAAATAAGTCTGTTACAAATTTGTAATATTACTGAAAATTCTAAATGTATATTT
DNA 2: AAATATACATTTAGAATTTTCAGTAATATTACAAATTTGTAACAGACTTATTTTCGAAACATTCAGTTTT
Regarding B2, the binding result with WalR [3] is reported as “binds”.

B3: isaA promoter EMSA probe (dsDNA)
DNA 1: AAATAACACTTGATATTGTAATGTTTTGTAAAGAAAGTGTAATTTACTGGCTGGTTTTTTGTGATATAGT
DNA 2: ACTATATCACAAAAAACCAGCCAGTAAATTACACTTTCTTTACAAAACATTACAATATCAAGTGTTATTT
With B3, the binding result in the data set with WalR [4] is on record as “binds”.

B4: WalR_(T101A)-SmBIT (natural protein, Staphylococcus aureus, UniProt Q2FKN8 1-233, looked up)
chain: MARKVVVVDDEKPIADILEFNLKKEGYDVYCAYDGNDAVDLIYEEEPDIVLLDIMLPGRDGMEVCREVRKKYEMPIIMLTAKDSEIDKVLGLELGADDYVAKPFSTRELIARVKANLRRHYSQPAQDTGNVTNEITIKDIVIYPDAYSIKKRGEDIELTHREFELFHYLSKHMGQVMTREHLLQTVWGYDYFGDVRTVDVTIRRLREKIEDDPSHPEYIVTRRGVGYFLQQHE
Regarding B4, in data set [5], the “fold change of the maximal level of interaction against native WalK/WalR” value came out at 1.5 fold.

B5: SAUSA300_0602 promoter EMSA probe (dsDNA)
DNA 1: GAAATATAAAAGTAGTAATTATTATTTGTAATATAATTGTAATATGACTGTTGTTTTAGAAATGATTGTT
DNA 2: AACAATCATTTCTAAAACAACAGTCATATTACAATTATATTACAAATAATAATTACTACTTTTATATTTC
B5: the binding result with WalR [4] is on record as “binds”.

B6: sle1 promoter EMSA probe (dsDNA)
DNA 1: TTTGATGATACAGTATATGATTTTTTTGTAATCATAATGTCATCAAACATCAACCTATTATACATAATAA
DNA 2: TTATTATGTATAATAGGTTGATGTTTGATGACATTATGATTACAAAAAAATCATATACTGTATCATCAAA
Consider B6, for which the binding result with WalR [4] is “binds”.

B7: ltaS promoter EMSA probe (WalR site) (dsDNA)
DNA 1: ATATTTATTAATTGAGCTATGCTTATTATTACAATTTGATTACAAATTTTAAATTTGTTAATTGAATGAT
DNA 2: ATCATTCAATTAACAAATTTAAAATTTGTAATCAAATTGTAATAATAAGCATAGCTCAATTAATAAATAT
For B7, the binding result in the data set with WalR [4] and with VraR [6] was “binds” each time.

B8: sasD promoter EMSA probe (dsDNA)
DNA 1: CTTTTGTAATCGTATGATAATGTAAATGTAATCAAATTGTAATATAAGGGGACAAGACAATGAAAAAATT
DNA 2: AATTTTTTCATTGTCTTGTCCCCTTATATTACAATTTGATTACATTTACATTATCATACGATTACAAAAG
Consider B8, for which the binding result with WalR [4] was “binds”.
